Assay results as given in US11896644B2, “Inhibition of beta-arrestin oligomerization in tauopathy” (UNIVERSITY OF SOUTH FLORIDA, priority 2020, dated 2024).

What was measured:
[1] = target: T1, HA-p62 and GFP-p62 interaction (Homo sapiens, UniProt Q13501); assay: Co-IP of HA-p62 and GFP-p62 interaction; type: cell-based; settings: Hela-V5-tau cells
T1 construct: #38277; host or cells: Hela-V5-tau cells
Text: (§1) FIGS. 12A to 12E show β-arrestin2 interacts with p62, and β-arrestin2 oligomerization inhibits p62 self-interaction. FIG. 12A contains representative confocal images of mCherry and EGFP in Hela-V5-tau cells transfected with mCherry-GFP-p62 together with control vector, β-arrestin2-flag, or β-arrestin2 ΔIP6N-flag (Scale bar=10 μm). […] The box and whisker plots show all data points, and the box plots show all data points, the median and IQR, and the minimal and maximal values. FIG. 12C contains representative immunoblots of indicated proteins from Hela-V5-tau cells transfected GFP or GFP-β-arrestin2 with/without HA-p62. Note that β-arrestin2 is present in HA immune complexes only in the presence of HA-p62, whereas β-arrestin2 is not detected in control IgG beads. […] Lysates were subjected to IP for HA. […] FIG. 12F show quantification of flag/p62 PLA puncta/cell (N=4 independent experiments, #P<0.0001).
Brain homogenates and cultured cells were lysed with RIPA buffer (50 mM Tris pH 7.4, 150 mM NaCl, 2 mM ethlenediaminetetraacetic acid, 1% NP-40, 0.1% sodium dodecyl sulfate) plus protease and phosphatase inhibitors. Proteins were extracted and centrifuged at 15000 rpm for 15 min at 4° C., and RIPA insoluble fractions were lysed with 5% SDS with 1% β-mercaptoethanol, 50 mM Tris-HCl pH 6.8, 12.5 mM EDTA, 10% glycerol, and 0.02% bromophenol blue. […]

[2] = target: T2, βarrestin1 homo-oligomers (Homo sapiens, UniProt P49407); assay: PLA for βarrestin1 homo-oligomers in HeLa-V5-tau cells; type: cell-based
T2 construct: expressed in transfected cells; host or cells: HeLa-V5-tau cells
Text: FIGS. 24A to 24D show β-arrestin2 oligomerization mutants impair β-arrestin1 homo-oligomers and β-arrestin1/β-arrestin2 hetero-oligomers. HeLa-V5-tau cells were co-transfected with vector control or β-arrestin2 oligomerization mutants (ΔIP6C or ΔIP6N) together with βarrestin1-GFP+βarrestin1-myc or βarrestin2-myc. Cells were then subjected to proximity ligation assay (PLA) using antibodies against GFP and mycto detect βarrestin1 homo-oligomers (FIGS. 24A,24B) and βarrestin1/βarrestin2 hetero-oligomers and DAPI staining (FIGS. 24C,24D) (puncta).

[3] = target: T3, β-arrestin2-flag and β-arrestin2-myc interaction (Rattus norvegicus, UniProt P29067); assay: PLA of β-arrestin2-flag and β-arrestin2-myc interaction in presence of mutants; type: cell-based; settings: Hela-V5-tau cells
T3 construct: expressed in transfected cells; host or cells: Hela V5-tau cells
Procedure: The assay was performed using commercially available reagents (Duolink, Sigma-Aldrich, St Louis, MO), with transfection of Hela V5-tau cells with WT β-arrestin2-flag and β-arrestin2-myc, without and with the mutant β-arrestin2 ΔIP6C or β-arrestin2 ΔIP6N constructs. Cells were fixed with 4% paraformaldehyde for 15 min at room temperature and washed with 0.2% triton in TBS. After washing, cells were blocked with 0.2% Triton in 3% Normal goat serum for 1 hour at room temperature. After applying primary antibodies overnight at 4° C., cells were washed and incubated with the PLA probes at 37° C. (1 h), washed with buffer A, incubated with ligation solution at 37° C. (30 min), washed with washing buffer A, incubated with amplification solution at 37° C. […]
When DIV 18 tau P301S cortical primary neurons were transduced with either β-arrestin2 ΔIP6C or ΔIP6N lentivirus, an approximately 50% reduction in tau compared to control was evident (FIGS. 4A,4B), which represents a key finding relevant to both mechanism of action and potential therapeutic strategies. […] To determine whether β-arrestin2 oligomerization status alters tau aggregation itself, filter-trap assays were performed from Hela-V5-tau cells transfected with β-arrestin2 variants, in which tau aggregates from detergent-soluble and-insoluble lysates were captured by cellulose acetate membranes and assessed by immunoblotting.

β-arrestin2 oligomers = β-arrestin2 oligomers (Rattus norvegicus, UniProt P29067); settings: BRET and co-immunoprecipitation; cited from earlier work
p62 = target: T4, p62 (Homo sapiens, UniProt Q13501); assay: Interaction of β-arrestin2 variants with p62 (flag/p62 PLA); type: cell-based; settings: Hela-V5-tau cells
T4 construct: endogenous in cells; host or cells: Hela-V5-tau cells
Text: as §1
Given the effects on p62 autophagy flux, whether β-arrestin2 physically interacts with p62 was tested. […] Given that β-arrestin2 oligomeric mutants, ΔIP6C and ΔIP6N, reduced tau aggregates by slowing tau turnover, next tested was whether β-arrestin2 ΔIP6C and ΔIP6N mutants affect p62 self-association by a proximity ligation assays (PLA) as well as co-IP. […]

HA-p62/GFP-p62 complex = target: T5, HA-p62/GFP-p62 complex (Homo sapiens, UniProt Q13501); assay: PLA of HA-p62/GFP-p62 complex (p62 self-interaction); type: cell-based; settings: Hela-V5-tau cells
T5 construct: #38277; host or cells: Hela-V5-tau cells
Procedure: (§2) Data are shown as box plots or mean±SEM.
(§3) Given the effects on p62 autophagy flux, whether β-arrestin2 physically interacts with p62 was tested. […] Given that β-arrestin2 oligomeric mutants, ΔIP6C and ΔIP6N, reduced tau aggregates by slowing tau turnover, next tested was whether β-arrestin2 ΔIP6C and ΔIP6N mutants affect p62 self-association by a proximity ligation assays (PLA) as well as co-IP. […] Recent studies have shown that purified recombinant p62 spontaneously forms globular oligomers (Zaffagnini G, et al. (2018) EMBO J 37(5)). To test whether β-arrestin2 can directly affect p62 oligomerization in vitro, purified recombinant p62, β-arrestin2, and p62 mixed with β-arrestin2 with atomic force microscopy were visualized. Recombinant p62 spontaneously formed visible globular particles between 5-100 nm in diameter (FIG. 5K), whereas only very few small β-arrestin2 particles were visible under identical conditions (FIG. 5K). […] Next tested was whether β-arrestin2 oligomerization is required for bafilomycin A-induced p62 puncta formation. As expected, GFP-p62 puncta were increased upon bafilomycin A treatment in control vector transfected cells (FIGS. 5M,5N).

GFP-p62 puncta = GFP-p62 puncta in Hela-V5-tau cells with/without bafilomycin A; type: cell-based; settings: steady-state
Procedure: as §2, §3

[4] = tested on: tau turnover in Hela-V5-tau cells; assay: Cycloheximide chase of tau turnover in Hela-V5-tau cells; type: cell-based; settings: cycloheximide 100 μg/ml
Text: FIGS. 4A to 4E show β-arrestin2 oligomerization is required for suppressing tau turnover. […] Data are shown as box plots or mean±SEM.
When DIV 18 tau P301S cortical primary neurons were transduced with either β-arrestin2 ΔIP6C or ΔIP6N lentivirus, an approximately 50% reduction in tau compared to control was evident (FIGS. 4A,4B), which represents a key finding relevant to both mechanism of action and potential therapeutic strategies. […] Also investigated was whether β-arrestin2 oligomerization is required for slowing tau turnover by disrupting oligomerization using these mutants in several models. […] To determine whether β-arrestin2 oligomerization status alters tau aggregation itself, filter-trap assays were performed from Hela-V5-tau cells transfected with β-arrestin2 variants, in which tau aggregates from detergent-soluble and-insoluble lysates were captured by cellulose acetate membranes and assessed by immunoblotting.

T2 sequence (P49407 whole entry): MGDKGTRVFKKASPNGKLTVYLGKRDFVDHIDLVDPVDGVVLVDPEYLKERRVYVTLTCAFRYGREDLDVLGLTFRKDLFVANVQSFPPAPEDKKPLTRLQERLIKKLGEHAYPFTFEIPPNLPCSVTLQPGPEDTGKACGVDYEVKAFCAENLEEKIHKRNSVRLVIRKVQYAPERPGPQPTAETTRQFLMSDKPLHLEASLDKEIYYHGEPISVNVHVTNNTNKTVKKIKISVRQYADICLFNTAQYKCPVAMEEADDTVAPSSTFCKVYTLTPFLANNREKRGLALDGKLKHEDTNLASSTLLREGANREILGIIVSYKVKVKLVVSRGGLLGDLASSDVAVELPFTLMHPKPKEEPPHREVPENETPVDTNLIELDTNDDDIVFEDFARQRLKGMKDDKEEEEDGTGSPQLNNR
T2 sequence (P49407 whole entry): as above
β-arrestin2 oligomers, sequence (P29067 whole entry): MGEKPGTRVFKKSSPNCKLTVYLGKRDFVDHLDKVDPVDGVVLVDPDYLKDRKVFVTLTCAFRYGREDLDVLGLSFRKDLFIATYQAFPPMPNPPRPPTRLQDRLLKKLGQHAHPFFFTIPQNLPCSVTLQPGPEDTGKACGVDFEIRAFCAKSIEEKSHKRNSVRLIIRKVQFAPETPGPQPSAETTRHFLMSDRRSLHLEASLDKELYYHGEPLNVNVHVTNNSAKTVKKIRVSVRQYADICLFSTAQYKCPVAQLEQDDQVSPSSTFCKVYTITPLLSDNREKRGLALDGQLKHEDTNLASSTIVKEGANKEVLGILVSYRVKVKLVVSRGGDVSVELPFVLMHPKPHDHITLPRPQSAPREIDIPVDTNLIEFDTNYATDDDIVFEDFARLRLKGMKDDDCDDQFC
T3 sequence (P29067 whole entry): as above

B1: β-arrestin2 ΔIP6N: β-arrestin2 N-terminal domain mutant (K158A, K161A, and R162A), incapable of forming oligomers; dominant negative (protein, UniProt P32121 1-409, looked up, variant K158A K161A R162A)
Beta-arrestin-2: MGEKPGTRVFKKSSPNCKLTVYLGKRDFVDHLDKVDPVDGVVLVDPDYLKDRKVFVTLTCAFRYGREDLDVLGLSFRKDLFIATYQAFPPVPNPPRPPTRLQDRLLRKLGQHAHPFFFTIPQNLPCSVTLQPGPEDTGKACGVDFEIRAFCAKSLEEASHAANSVRLVIRKVQFAPEKPGPQPSAETTRHFLMSDRSLHLEASLDKELYYHGEPLNVNVHVTNNSTKTVKKIKVSVRQYADICLFSTAQYKCPVAQLEQDDQVSPSSTFCKVYTITPLLSDNREKRGLALDGKLKHEDTNLASSTIVKEGANKEVLGILVSYRVKVKLVVSRGGDVSVELPFVLMHPKPHDHIPLPRPQSAAPETDVPVDTNLIEFDTNYATDDDIVFEDFARLRLKGMKDDDYDDQLC
modifications: GFP or YFP tag
notes: dominant negative
HA-p62 and GFP-p62 interaction by co-IP [1]: neither β-arrestin2 ΔIP6C nor β-arrestin2 ΔIP6N alone were capable of reducing HA-p62 and GFP-p62 interaction
βarrestin1 homo-oligomers (PLA puncta) [2]: significantly reduce
β-arrestin2-flag and β-arrestin2-myc interaction (PLA) [3]: significantly reduced
oligomer formation (β-arrestin2 oligomers): incapable of forming oligomers
interaction with p62 compared to β-arrestin2 (p62): much less interaction with p62
HA-p62/GFP-p62 PLA puncta (p62 self-interaction) (HA-p62/GFP-p62 complex): neither β-arrestin2 ΔIP6C nor β-arrestin2 ΔIP6N reduced HA-p62/GFP-p62 PLA puncta
GFP-p62 puncta (GFP-p62 puncta): increased GFP-p62 puncta at steady-state
tau turnover in cycloheximide chase [4]: enhancement of tau turnover
